# Source: patent publication US20160039936A1, “FIBROBLAST GROWTH FACTOR RECEPTOR INHIBITION FOR THE TREATMENT OF DISEASE” (UNIVERSITY OF MIAMI, priority 2011, published 2016)
# B1: FGF2: recombinant mouse FGF2 (Ala11-Ser154) (R&D Systems) (protein)
# chain: ALPEDGGAAFPPGHFKDPKRLYCKNGGFFLRIHPDGRVDGVREKSDPHVKLQLQAEERGVVSIKGVCANRYLAMKEDGRLLASKCVTEECFFFERLESNNYNTYRSRKYSSWYVALKRTGQYKLGSKTGPGQKAILFLPMSAKS
# B2: FGF23: recombinant mouse FGF23, 6His-tagged Tyr25-Val251 (Arg179Gln) (R&D Systems) (protein)
# chain: YPDTSPLLGSNWGSLTHLYTATARTSYHLQIHRDGHVDGTPHQTIYSALMITSEDAGSVVITGAMTRRFLCMDLHGNIFGSLHFSPENCKFRQWTLENGYDVYLSQKHHYLVSLGRAKRIFQPGTNPPPFSQFLARRNEVPLLHFYTVRPRRHTQSAEDPPERDPLNVLKPRPRATPVPVSCSRELPSAEEGGPAASDPLGVLRRGRGDARGGAGGADRCRPFPRFV
# modifications: left off: small tags and cut ends
# Columns and labels:
# FGFR = settings: Mohammadi et al. 1998; Grand et al. 2004; cited from earlier work
# isolated NRVM = assay: Ras/MAPK signaling (phospho-FRS2α, phospho-ERK1/2) Western blot in NRVM; format: cell-based, rat; settings: 30 minutes, FGF alone
# Description: HEK293 cells, NRVM or NMVM were treated with growth factors for 30 minutes to analyze activation of signal transduction mediators, or for 48 hours to analyze expression levels of hypertrophic marker proteins. Cells were scraped from 6-well plates using 500 μl CHAPS extraction buffer (20 mM Tris-HCl pH7.5, 500 mM NaCl, 0.5% CHAPS, protease inhibitor cocktail (Roche), protein phosphatase inhibitors [Sigma-Aldrich]) and incubated on ice for 30 minutes. The cell lysate was centrifuged at 14,000 rpm and 4° C. for 30 minutes, and the supernatant boiled in sample buffer and analyzed by SDS-PAGE and immunoblotting. For protein extraction from mouse hearts, tissue was isolated, minced and homogenized in RIPA extraction buffer (50 mM Tris-HCl pH 7.5, 200 mM NaCl, 1% Triton X-100, 0.25% DOC, 1 mM EDTA, 1 mM EGTA, protease and phosphatase inhibitors) at 1:10 (w:v), and protein lysates were prepared as described above. […]
# C57BL/6 mice = assay: Intravenous injection of FGFs (with or without Fc-FGFR decoy receptors) in mice; format: in vivo, mouse; settings: FGF23 40 μg/kg i.v. twice daily 5 days
# Description: Twelve-week old adult C57BL/6 mice underwent tail vein injections using standard protocols as previously described for the systemic delivery of plasmid DNA (Faul et al., 2008). Briefly, mice were placed in a restrainer and 40 μg/kg of FGF23 dissolved in 200 μl of PBS were injected into the tail vein of 5 mice twice daily with eight hours in between injections for 5 consecutive days. Four mice underwent the same injection schedule using 200 μl of PBS alone as negative control. On the morning of the 6th day, 16 hours after the final tail vein injections, animals were sacrificed and the hearts were isolated and prepared using the same protocol as described above.
# Short-axis cardiac sections were used to quantify myocardial thickness by measuring the distance from the inner to the outer myocardial zone at the mid-chamber zone. […] Since klothro-ablated kl/kl mice display severe growth retardation with small hearts (Kuro-o et al., Nature, 390(6655):45-51, 1997), we also measured relative wall thickness calculated as two times the anterior wall thickness divided by left ventricular internal diameter. Total RNA was isolated from flash frozen hearts using TRIzol (Invitrogen) and RT-PCR analyses were performed as described above.
# We measured cross-sectional surface area of cardiac myocytes in paraffin-embedded short-axis sections of the heart. Briefly, 7 μm thick sections were deparaffinized according to our established protocols. To specifically label cardiac myocytes, we used mouse monoclonal MF20 antibody against sarcomeric myosin at 1:200 and Cy5-conjugated donkey-anti mouse (Invitrogen) as secondary antibody at 1:400. To visualize nuclei, fixed tissue was incubated with 4′,6-diamidino-2-phenylindole (DAPI; 400 ng/ml in PBS) for 5 minutes. To visualize cellular borders, fixed tissue was incubated with wheat germ agglutinin (WGA) conjugated to Alexa Fluor 555 (Invitrogen) at 1 mg/ml in PBS containing 10 mM sodium azide. Immunofluorescence images were taken on a Leica TCS-SP5 confocal microscope with a 63× oil objective. Leica AF6000 fluorescence software was used to quantify cross-sectional cell surface area of 25 cells per field at four fields along the mid-chamber free wall based on WGA-positive staining.
# Next, we wanted to determine the effectiveness of this FGFR trapping system on FGF-induced LVH in mice. To our knowledge, Fc decoy receptors have not yet been used to study FGFR function in vivo in any biological context, but served as valuable tools to analyze the functions of other receptor tyrosine kinases, like receptors for vascular endothelial growth factor (VEGFR) and their role in tumor growth and metastasis. We used similar Fc-FGFR concentrations as described for Fc-VEGFR in animal models of cancer (Lin J et al., Cancer Res. 2005; 65(15):6901-9).
# [1] = In vivo biological activity of FGF23 (serum phosphate); set-up: species or system rat; settings: Sprague-Dawley rats, single i.v. 40 μg/kg, over 4 hours
# Excerpt: We used recombinant mouse FGF23 (6His-tagged Tyr25-Val251 (Arg179Gln)), FGF2 (Ala11-Ser154), and FGF4 (Ala30-Leu202) proteins (R&D Systems). We chose the mutant form of FGF23 because it is resistant to furin protease-mediated degradation, which prolongs the protein's half-life.
# We used recombinant mouse FGF23 (6His-tagged Tyr25-Val251 [Arg179Gln]; 26.1 kDa), and FGF2 (Ala11-Ser154; 16.2 kDa) (R&D Systems) as before (Faul et al., 2011).
molecule,measurement,setting,value
CCN(CC)CCCCNc1ncc2cc(-c3cc(OC)cc(OC)c3)c(NC(=O)NC(C)(C)C)nc2n1 [PD173074],phosphorylation of FGFR3 and FGFR4,FGFR,inhibits
B1,levels of phosphorylated FRS2α and ERK1/2,isolated NRVM,increased
B2,cardiac weight/tibial length,C57BL/6 mice; vs vehicle,significantly increased
same,cross-sectional surface area of individual cardiac myocytes,C57BL/6 mice; vs vehicle,increased
same,expression of α-MHC and MCAD mRNA levels,C57BL/6 mice; vs vehicle,decreased expression
same,"expression of β-MHC, ANP and BNP",C57BL/6 mice; vs vehicle,increased expression
same,left ventricular wall thickness,C57BL/6 mice; vs vehicle,increased
same,FGF23 levels at the time of sacrifice,"C57BL/6 mice; 16 hours after final injection, vs PBS",significantly increased
same,serum phosphate levels,[1],significantly decreased
